The results in this text go back to publication PMC12407893 (bioRxiv, 2025).

The target in assay [1] is T1, yeast RNA polymerase II (pol II) WT, TAP tag on RPB3 (S. cerevisiae, UniProt P04050;P08518;P16370;P20433;P20434;P20435;P34087;P20436;P27999;P22139;P38902;P40 …). As to the kind of experiment: cross-linking.
In assay [2] the target is T2, RPB5, as subunit of purified yeast pol II (S. cerevisiae, UniProt P20434 1-215).
T2 sequence: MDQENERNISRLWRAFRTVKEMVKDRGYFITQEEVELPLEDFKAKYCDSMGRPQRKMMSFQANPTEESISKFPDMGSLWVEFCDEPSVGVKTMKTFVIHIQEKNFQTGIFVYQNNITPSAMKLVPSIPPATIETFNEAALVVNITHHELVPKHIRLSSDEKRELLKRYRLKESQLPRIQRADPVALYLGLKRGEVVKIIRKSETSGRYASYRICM
The assay is described as follows: cross-linking.

For assay [3], the target named is RPB1, as subunit of purified yeast pol II (S. cerevisiae, UniProt P04050 1-1733). As to the kind of experiment: cross-linking.
The target in assay [4] is T1, yeast RNA polymerase II (pol II) WT, …. As to the kind of experiment: pull-down.
For assay [5] the target is unchanged. As to the kind of experiment: pull-down. This is another data set of the same source.

Chain of RPB1, as subunit of purified yeast pol II (P04050 whole entry): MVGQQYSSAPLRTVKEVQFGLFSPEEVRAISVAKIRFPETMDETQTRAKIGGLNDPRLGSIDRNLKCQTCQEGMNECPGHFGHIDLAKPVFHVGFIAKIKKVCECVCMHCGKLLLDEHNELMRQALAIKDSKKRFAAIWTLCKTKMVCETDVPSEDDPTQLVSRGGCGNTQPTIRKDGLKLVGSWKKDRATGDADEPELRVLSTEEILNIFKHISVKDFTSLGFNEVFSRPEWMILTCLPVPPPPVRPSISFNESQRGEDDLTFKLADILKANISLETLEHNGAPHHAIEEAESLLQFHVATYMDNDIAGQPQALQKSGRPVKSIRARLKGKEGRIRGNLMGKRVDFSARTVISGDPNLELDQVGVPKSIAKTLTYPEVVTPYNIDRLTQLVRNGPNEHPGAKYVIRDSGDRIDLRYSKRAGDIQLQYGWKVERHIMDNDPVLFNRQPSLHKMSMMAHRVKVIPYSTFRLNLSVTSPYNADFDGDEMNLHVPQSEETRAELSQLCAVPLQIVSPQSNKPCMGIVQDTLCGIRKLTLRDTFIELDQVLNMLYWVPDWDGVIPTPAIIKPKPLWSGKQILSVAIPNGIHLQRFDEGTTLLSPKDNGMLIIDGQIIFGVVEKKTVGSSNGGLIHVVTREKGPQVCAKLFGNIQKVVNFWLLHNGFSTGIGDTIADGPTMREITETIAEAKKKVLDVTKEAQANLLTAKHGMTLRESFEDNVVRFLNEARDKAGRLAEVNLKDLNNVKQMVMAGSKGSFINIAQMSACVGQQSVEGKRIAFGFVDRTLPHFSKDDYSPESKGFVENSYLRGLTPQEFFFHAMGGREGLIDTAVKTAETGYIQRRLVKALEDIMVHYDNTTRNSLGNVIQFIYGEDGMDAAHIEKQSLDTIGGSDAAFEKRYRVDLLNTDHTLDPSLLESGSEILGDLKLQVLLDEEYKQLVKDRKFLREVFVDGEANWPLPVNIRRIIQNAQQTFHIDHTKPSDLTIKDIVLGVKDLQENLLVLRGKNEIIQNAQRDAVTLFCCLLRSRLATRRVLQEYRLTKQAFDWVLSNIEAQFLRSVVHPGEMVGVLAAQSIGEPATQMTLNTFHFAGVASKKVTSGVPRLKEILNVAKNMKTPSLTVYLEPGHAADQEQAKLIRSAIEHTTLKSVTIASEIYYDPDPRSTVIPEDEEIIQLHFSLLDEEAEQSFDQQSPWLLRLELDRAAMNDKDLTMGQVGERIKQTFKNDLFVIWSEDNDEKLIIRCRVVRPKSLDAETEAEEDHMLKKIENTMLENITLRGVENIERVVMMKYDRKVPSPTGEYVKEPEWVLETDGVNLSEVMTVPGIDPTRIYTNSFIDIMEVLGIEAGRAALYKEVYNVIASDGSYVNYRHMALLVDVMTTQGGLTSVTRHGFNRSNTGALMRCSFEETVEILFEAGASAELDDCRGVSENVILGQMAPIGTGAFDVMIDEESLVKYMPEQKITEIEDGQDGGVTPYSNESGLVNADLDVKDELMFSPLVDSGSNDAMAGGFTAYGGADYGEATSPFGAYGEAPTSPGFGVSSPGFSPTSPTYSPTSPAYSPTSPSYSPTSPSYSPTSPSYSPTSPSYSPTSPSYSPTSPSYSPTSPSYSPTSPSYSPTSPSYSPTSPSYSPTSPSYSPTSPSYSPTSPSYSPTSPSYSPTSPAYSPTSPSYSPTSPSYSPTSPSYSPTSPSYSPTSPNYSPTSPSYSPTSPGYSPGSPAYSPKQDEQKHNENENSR

B1: Prp40 FF4–6 (351–552) (domain or fragment)
chain: NYTRDRIARDNFKSLLREVPIKIKANTRWSDIYPHIKSDPRFLHMLGRNGSSCLDLFLDFVDEQRMYIFAQRSIAQQTLIDQNFEWNDADSDEITKQNIEKVLENDRKFDKVDKEDISLIVDGLIKQRNEKIQQKLQNERRILEQKKHYFWLLLQRTYTKTGKPKPSTWDLASKELGESLEYKALGDEDNIRRQIFEDFKPE
Consider B1, for which the binding result in assay [1], in assay [2] and in assay [3] was “binds” each time.

B2: GST-fused Prp40 FF3 domain (270–335) (domain or fragment)
chain: KTQALKELREYLNGIITTSSSETFITWQQLLNHYVFDKSKRYMANRHFKVLTHEDVLNEYLKIVNT
As to B2, the binding result in assay [4] is on record as “binds”.

B3: protein A-tagged Prp40, full length (natural protein)
chain: MSIWKEAKDASGRIYYYNTLTKKSTWEKPKELISQEELLLRENGWKAAKTADGKVYYYNPTTRETSWTIPAFEKKVEPIAEQKHDTVSHAQVNGNRIALTAGEKQEPGRTINEEESQYANNSKLLNVRRRTKEEAEKEFITMLKENQVDSTWSFSRIISELGTRDPRYWMVDDDPLWKKEMFEKYLSNRSADQLLKEHNETSKFKEAFQKMLQNNSHIKYYTRWPTAKRLIADEPIYKHSVVNEKTKRQTFQDYIDTLIDTQKESKKKLKTQALKELREYLNGIITTSSSETFITWQQLLNHYVFDKSKRYMANRHFKVLTHEDVLNEYLKIVNTIENDLQNKLNELRLRNYTRDRIARDNFKSLLREVPIKIKANTRWSDIYPHIKSDPRFLHMLGRNGSSCLDLFLDFVDEQRMYIFAQRSIAQQTLIDQNFEWNDADSDEITKQNIEKVLENDRKFDKVDKEDISLIVDGLIKQRNEKIQQKLQNERRILEQKKHYFWLLLQRTYTKTGKPKPSTWDLASKELGESLEYKALGDEDNIRRQIFEDFKPESSAPTAESATANLTLTASKKRHLTPAVELDY
In the case of B3, the binding result in assay [5] is reported as “binds”.

B4: GST-fused Prp40 FF1 domain (134–189) (domain or fragment)
chain: EAEKEFITMLKENQVDSTWSFSRIISELGTRDPRYWMVDDDPLWKKEMFEKYLSNR
Turning to B4, the binding result in assay [4] is given as “binds”.

B5: GST-fused Prp40 FF6 extension (488–583) (domain or fragment)
chain: NERRILEQKKHYFWLLLQRTYTKTGKPKPSTWDLASKELGESLEYKALGDEDNIRRQIFEDFKPESSAPTAESATANLTLTASKKRHLTPAVELDY
Take B5: the binding result in assay [4] is reported as “binds”.

B6: GST-fused Prp40 FF4 domain (351–415) (domain or fragment)
chain: NYTRDRIARDNFKSLLREVPIKIKANTRWSDIYPHIKSDPRFLHMLGRNGSSCLDLFLDFVDEQR
Regarding B6, the binding result in assay [4] is listed as “binds”.

B7: GST-fused Prp40 FF2 domain (204–269) (domain or fragment)
chain: FKEAFQKMLQNNSHIKYYTRWPTAKRLIADEPIYKHSVVNEKTKRQTFQDYIDTLIDTQKESKKKL
Turning to B7, the binding result in assay [4] is reported as “binds”.
